Test results from paper PMC4402518.

Target: Hop2;Mnd1 (Giardia lamblia ATCC 50803;Giardia lamblia ATCC 50803) (UniProt E2RTU1)
Experiment: fluorescence anisotropy
Settings: Fluorescence anisotropy: 20 mM Tris-HCl pH 7.5, 100 mM NaCl, 5 mM MgCl2, 25 C, 50 nM DNA, triplicate, Exo I assay conditions not in material

Sequence: GCGGGTAATCCAGATGTTCCACGTGAAACAGAACAACTAA (double strand) [40 bp dsDNA]
- Kd (5 mM Mg2+): 100 nM
- binding signal (fold weaker than with 5 mM Mg2+) (no Mg2+): 10
